Results: patent US20090092614A1 (Biogen, published 2009)
Like-named read-outs stand apart in the source and are kept apart here.

Legend:
[1] = molecular target: T1, human INSR(28-956)-His10 (human, UniProt P06213 28-956); experiment: ELISA on plate-coated rh-INSR, goat anti-human kappa-HRPO
T1 construct: range 28-956; Bought (R&D Systems); also called rh-INSR (R&D 1544-IR); INSR-His10
Experimental: (§1) ELISA assays were performed to determine specific binding of the Fab fragment antibodies to soluble IGF-1R over the insulin receptor. […] Color development was stopped by addition of 4NH₂SO₄ and optical density is measured at 450 nm using a Molecular Devices plate reader and binding curves are generated.

[2] = molecular target: T2, human IGF-1R(1-902)-His10 (human, UniProt P08069 31-932); experiment: ELISA on plate-coated rh-IGF-1R, goat anti-human kappa-HRPO
T2 construct: Bought (R&D Systems); also called hIGF-1R-His10; IGF-1R-His
Experimental: as §1

[3] = molecular target: T1, human INSR(28-956)-His10; experiment: ELISA, rh-INSR coated
Experimental: as §1

[4] = molecular target: T3, human IGF-1R(1-903)-Fc (human, UniProt P08069 31-933); experiment: blocking ELISA, competitor 320 nM IGF-1
T3 construct: Made by Biogen Idec; also called hIGF-1R-Fc; IGF-1R-Fc

[5] = molecular target: T3, human IGF-1R(1-903)-Fc; experiment: blocking ELISA, competitor 640 nM IGF-2
[6] = molecular target: T4, hIGF-1R-Fc mutant SD015 (human, UniProt P08069 31-933); experiment: KD grade of mutant hIGF-1R-Fc; S = binding to antibody was ablated by mutation
T4 construct: Positions count without the signal peptide; also called H464E; not shown: human IgG1 Fc tag

[7] = molecular target: T5, hIGF-1R-Fc mutant SD110 (human, UniProt P08069 31-933); experiment: as above
T5 construct: build as m36 with the substitution; also called E533H; not shown: C-terminal human IgG1 Fc tag

[8] = molecular target: T6, hIGF-1R-Fc mutant SD113 (human, UniProt P08069 31-933); experiment: as above
T6 construct: build as m36 with the substitutions; also called E570A I571T

[9] = molecular target: T7, hIGF-1R-Fc mutant SD102 (human, UniProt P08069 31-933); experiment: as above
T7 construct: build as m36 with the substitutions; also called E459A S460A

[10] = molecular target: T8, hIGF-1R-Fc mutant SD103 (human, UniProt P08069 31-933); experiment: as above
T8 construct: build as m36 with the substitutions; also called D461A V462T

[11] = molecular target: T9, hIGF-1R-Fc mutant SD104 (human, UniProt P08069 31-933); experiment: as above
T9 construct: build as m36 with the substitution; also called H464A; not shown: C-terminal human IgG1-Fc tag and its junction

[12] = molecular target: T10, hIGF-1R-Fc mutant SD108 (human, UniProt P08069 31-933); experiment: as above
T10 construct: build as m36 with the substitution; also called H480E; not shown: C-terminal human IgG1-Fc tag and its junction

[13] = molecular target: T11, hIGF-1R-Fc mutant SD109 (human, UniProt P08069 31-933); experiment: as above
T11 construct: build as m36 with the substitutions; also called Y482A R483W; not shown: C-terminal human IgG1-Fc tag and its junction

[14] = molecular target: T12, sIGF-1R(1-903) (human, UniProt P08069 31-933); experiment: ITC, 5 °C
T12 construct: also called soluble recombinant human IGF-1R ectodomain
Experimental: (§2) These protein solutions were adjusted to the concentrations listed above by dialyzing in PBS. ITC experiments were performed on an ITC200 microcalorimeter (MicroCal, LLC). […] A four minute equilibration period was used between all injections with an initial delay of 60 seconds. […] The lower limit of the protein concentrations capable of generating sufficient signal by calorimetry to measure a change in heat was ˜2-4 micromolar protein.

[15] = molecular target: T12, sIGF-1R(1-903); experiment: ITC, 15 °C
Experimental: as §2

[16] = molecular target: T12, sIGF-1R(1-903); experiment: ITC, 25 °C
Experimental: as §2

[17] = molecular target: T12, sIGF-1R(1-903); experiment: ITC, 37 °C
Experimental: as §2

[18] = molecular target: human IGF-1R (full length, on cells) (human, UniProt P08069 31-740; P08069 741-1367); experiment: cell-based or functional assay
[19] = molecular target: T4, hIGF-1R-Fc mutant SD015; experiment: SPR, Fab over captured mutant
Experimental: After, completion of the receptor-Fc loading step, flow rates were elevated to 5 μl/min. […] At the end of each sensorgram, the flow rate was elevated to 30 μl/min and the chip surface was regenerated by 2×10 μL injections of 0.1 M glycine, pH 2.

[20] = molecular target: T3, human IGF-1R(1-903)-Fc; experiment: ELISA on plate-coated soluble IGF-1R-Fc, goat anti-human kappa-HRP
Experimental: (§3) The absorbance was measured at 450 nm, background 540 nm for TMB using the Molecular Devices plate reader. Data was analyzed using the SOFTMAX PRO software package version 4.3 LS (Molecular Devices Corp.).

[21] = molecular target: T3, human IGF-1R(1-903)-Fc; experiment: competition ELISA: biotinylated hIGF-1R-Fc on streptavidin plate, M14-G11 titrated in 20 nM human IGF-1 His (blocked ligand)
[22] = molecular target: T3, human IGF-1R(1-903)-Fc; experiment: competition ELISA: biotinylated hIGF-1R-Fc on streptavidin plate, M14-G11 titrated in 320 nM human IGF-1 His (blocked ligand)
[23] = molecular target: T3, human IGF-1R(1-903)-Fc; experiment: competition ELISA: biotinylated hIGF-1R-Fc on streptavidin plate, antibody titrated in 320 nM human IGF-1 His (blocked ligand), anti-His-HRP detection
[24] = molecular target: T3, human IGF-1R(1-903)-Fc; experiment: ELISA on plate-coated soluble IGF-1R-Fc, goat anti-human kappa-HRP; remark: listed apart in the source
Experimental: as §3

[25] = molecular target: T13, hIGF-1R-Fc mutant SD008 (human, UniProt P08069 31-933); experiment: SPR
T13 construct: Positions count without the signal peptide; also called S257F; not shown: human IgG1 Fc tag

[26] = molecular target: T14, hIGF-1R-Fc mutant SD012 (human, UniProt P08069 31-933); experiment: SPR
T14 construct: Positions count without the 30-residue signal peptide; also called E303G; not shown: human IgG1 Fc tag

T1 sequence (P06213 other isoform, or with tags, fused parts or gaps limits assumed): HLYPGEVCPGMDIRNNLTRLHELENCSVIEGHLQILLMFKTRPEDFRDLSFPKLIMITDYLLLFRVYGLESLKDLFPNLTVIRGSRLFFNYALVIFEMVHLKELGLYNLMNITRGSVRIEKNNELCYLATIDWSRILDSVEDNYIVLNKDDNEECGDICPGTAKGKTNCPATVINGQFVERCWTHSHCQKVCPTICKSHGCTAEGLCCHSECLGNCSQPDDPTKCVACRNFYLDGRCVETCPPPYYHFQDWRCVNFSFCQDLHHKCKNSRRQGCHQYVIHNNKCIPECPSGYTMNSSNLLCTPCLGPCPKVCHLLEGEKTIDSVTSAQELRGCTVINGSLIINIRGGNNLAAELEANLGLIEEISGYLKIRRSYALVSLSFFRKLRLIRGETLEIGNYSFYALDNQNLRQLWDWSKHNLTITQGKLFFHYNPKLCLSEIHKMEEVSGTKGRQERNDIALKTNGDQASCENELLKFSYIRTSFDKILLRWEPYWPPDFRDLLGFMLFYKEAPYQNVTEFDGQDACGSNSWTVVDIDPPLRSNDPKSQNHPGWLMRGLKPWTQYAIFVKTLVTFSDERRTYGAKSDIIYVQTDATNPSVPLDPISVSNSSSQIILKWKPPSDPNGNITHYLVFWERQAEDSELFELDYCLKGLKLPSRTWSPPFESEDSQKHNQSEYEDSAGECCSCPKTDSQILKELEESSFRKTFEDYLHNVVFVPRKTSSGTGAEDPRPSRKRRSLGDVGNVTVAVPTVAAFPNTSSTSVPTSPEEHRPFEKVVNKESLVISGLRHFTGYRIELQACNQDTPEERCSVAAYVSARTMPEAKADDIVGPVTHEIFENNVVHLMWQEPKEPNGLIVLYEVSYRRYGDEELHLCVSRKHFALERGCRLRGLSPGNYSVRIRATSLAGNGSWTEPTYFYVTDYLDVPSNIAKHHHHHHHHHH
T3 sequence (P08069 31-933): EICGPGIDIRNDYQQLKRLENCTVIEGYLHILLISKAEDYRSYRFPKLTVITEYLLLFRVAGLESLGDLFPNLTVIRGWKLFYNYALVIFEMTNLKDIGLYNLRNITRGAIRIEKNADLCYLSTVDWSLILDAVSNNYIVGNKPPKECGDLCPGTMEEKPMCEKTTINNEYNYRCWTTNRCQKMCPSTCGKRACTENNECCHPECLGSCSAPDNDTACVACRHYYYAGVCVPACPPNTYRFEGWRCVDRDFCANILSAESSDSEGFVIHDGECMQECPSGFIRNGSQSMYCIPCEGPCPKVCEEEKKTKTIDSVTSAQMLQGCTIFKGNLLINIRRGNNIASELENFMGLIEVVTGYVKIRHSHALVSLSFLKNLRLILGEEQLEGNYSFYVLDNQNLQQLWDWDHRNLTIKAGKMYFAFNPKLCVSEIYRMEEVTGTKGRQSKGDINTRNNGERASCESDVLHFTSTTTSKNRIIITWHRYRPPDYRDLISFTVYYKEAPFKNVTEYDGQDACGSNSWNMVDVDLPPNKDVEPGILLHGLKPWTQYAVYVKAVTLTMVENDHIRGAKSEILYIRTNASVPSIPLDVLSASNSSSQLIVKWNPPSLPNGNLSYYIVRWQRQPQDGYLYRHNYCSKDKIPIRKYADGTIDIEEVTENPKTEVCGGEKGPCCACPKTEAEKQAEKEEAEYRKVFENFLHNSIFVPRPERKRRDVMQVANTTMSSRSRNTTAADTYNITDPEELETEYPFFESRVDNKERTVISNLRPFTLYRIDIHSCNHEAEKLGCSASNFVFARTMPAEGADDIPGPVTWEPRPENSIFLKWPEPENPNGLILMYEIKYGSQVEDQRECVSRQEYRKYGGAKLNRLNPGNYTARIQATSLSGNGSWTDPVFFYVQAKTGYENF
T12 sequence (P08069 31-933): as above
Sequence of human IGF-1R (full length, on cells) (P08069 31-740, chain 1 of 2): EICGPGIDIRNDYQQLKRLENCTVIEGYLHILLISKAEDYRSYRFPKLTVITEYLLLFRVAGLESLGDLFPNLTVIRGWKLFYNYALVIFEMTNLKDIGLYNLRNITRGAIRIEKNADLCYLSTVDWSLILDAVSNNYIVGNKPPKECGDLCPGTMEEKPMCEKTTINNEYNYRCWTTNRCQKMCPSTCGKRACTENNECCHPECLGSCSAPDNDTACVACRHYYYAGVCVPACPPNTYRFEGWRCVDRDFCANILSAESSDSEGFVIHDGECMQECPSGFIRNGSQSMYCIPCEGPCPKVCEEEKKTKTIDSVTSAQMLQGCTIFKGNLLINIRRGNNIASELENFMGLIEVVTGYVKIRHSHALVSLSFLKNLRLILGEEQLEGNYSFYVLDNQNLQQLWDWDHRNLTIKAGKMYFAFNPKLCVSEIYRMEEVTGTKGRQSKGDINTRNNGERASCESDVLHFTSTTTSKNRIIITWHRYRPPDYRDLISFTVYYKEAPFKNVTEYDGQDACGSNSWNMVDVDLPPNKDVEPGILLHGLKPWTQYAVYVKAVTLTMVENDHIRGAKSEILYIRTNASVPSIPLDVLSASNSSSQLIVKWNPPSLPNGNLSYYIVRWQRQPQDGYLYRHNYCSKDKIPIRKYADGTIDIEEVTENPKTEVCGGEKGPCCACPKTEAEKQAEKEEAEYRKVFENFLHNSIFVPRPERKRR
Sequence of human IGF-1R (full length, on cells) (P08069 741-1367, chain 2 of 2): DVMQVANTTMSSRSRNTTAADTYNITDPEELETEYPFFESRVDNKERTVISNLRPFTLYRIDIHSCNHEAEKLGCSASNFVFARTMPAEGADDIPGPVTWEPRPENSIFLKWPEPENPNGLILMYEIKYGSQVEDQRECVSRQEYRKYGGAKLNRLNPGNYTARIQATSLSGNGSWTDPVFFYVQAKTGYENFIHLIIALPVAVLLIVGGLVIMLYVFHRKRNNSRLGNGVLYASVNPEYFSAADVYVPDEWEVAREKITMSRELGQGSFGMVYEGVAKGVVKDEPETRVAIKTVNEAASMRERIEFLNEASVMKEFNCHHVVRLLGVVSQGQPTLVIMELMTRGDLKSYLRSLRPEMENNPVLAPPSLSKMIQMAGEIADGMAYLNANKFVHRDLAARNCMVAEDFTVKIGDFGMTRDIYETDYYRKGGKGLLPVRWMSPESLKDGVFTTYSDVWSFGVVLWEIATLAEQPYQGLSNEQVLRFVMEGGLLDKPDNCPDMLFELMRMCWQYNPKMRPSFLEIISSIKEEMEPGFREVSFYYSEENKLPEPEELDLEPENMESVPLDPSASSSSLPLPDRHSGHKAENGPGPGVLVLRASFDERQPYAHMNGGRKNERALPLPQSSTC

B1: M14-B01 Fab (Fab, V domains shown)
VH: EVQLLESGGGLVQPGGSLRLSCAASGFTFSNYHMAWVRQAPGKGLEWVSVISPTGGRTTYADSVKGRFTISRDNSKNTLYLQMNSLRAEDTATYYCARAGYSYGYGYFDYWGQGTLVTVSS
VL: DIQMTQFPATLSVSPGERATLSCRASQSVMRNLAWYQQKPGQPPRLLIYGASKRATGIPARFSGSGSGTAFTLTISNLEPEDFAVYYCHQRSTWPLGTFGPGTKLEAK
notes: Human kappa Fab from a phage library
binding result [1]: no binding | EC50 (read off the curve) [2]: ~5 nM

B2: M12-E01 Fab (Fab, V domains shown)
VH: EVQLLESGGGLVQPGGSLRLSCAASGFTFSPYSMLWVRQAPGKGLEWVSSIGSSGGSTRYADSVKGRFTISRDNSKNTLYLQMNSLRAEDTAMYYCARVRGILHYDILIGRNLYYYYMDVWGKGTTVTVSS
VL: QYELTQPPSVSEAPRQRVTISCSGSSSNIGNNAINWYQQLPGKPPKLLIYYDDLLPSGVSDRFSGSKSGTSGSLAISGLQSEDEADYYCAAWDDNLNGVIFGGGTKLTVL
notes: Human lambda Fab from a phage library
binding result [3]: no binding (tested: 2 µM)

B3: M14-C03.G4.P.agly (antibody, human IgG4 S228P, kappa, V domains shown)
VH: EVQLLESGGGLVQPGGSLRLSCAASGFTFSKYMMSWVRQAPGKGLEWVSYISPSGGLTWYADSVKGRFTISRDNSKNTLYLQMNSLRAEDTAVYYCARDGARGYGMDVWGQGTTVTVSS
VL: DIQMTQSPATLSLSPGERATLSCRASQSVSSYLAWYQQKPGQAPRLLIYDASNRATGIPARFSGSGSGTDFTLTISSLEPEDFAVYYCQQRSNWPPEVTFGPGTKVDIKR
notes: Aglycosylated human IgG4 (S228P, T299A), kappa; also called M14-C03_Ab
% IGF-1 inhibition upon antibody saturation [4]: 19% | % IGF-2 inhibition upon antibody saturation [5]: 21% | binding result [6]: no binding | binding result [7]: no binding | binding result [8]: no binding | binding result [9]: no binding | binding result [10]: no binding | binding result [11]: no binding | binding result [12]: no binding | binding result [13]: no binding

B4: M13-C06.G4.P.agly (antibody, human IgG4 S228P, kappa, V domains shown)
VH: EVQLLESGGGLVQPGGSLRLSCAASGFTFSIYRMQWVRQAPGKGLEWVSGISPSGGTTWYADSVKGRFTISRDNSKNTLYLQMNSLRAEDTAVYYCARWSGGSGYAFDIWGQGTMVTVSS
VL: DIQMTQSPLSLSASVGDRVTITCQASRDIRNYLNWYQQKPGKAPKLLIYDASSLQTGVPSRFGGSGSGTDFSFTIGSLQPEDIATYYCQQFDSLPHTFGQGTKLEIKR
notes: Aglycosylated human IgG4 (S228P, T299A, EU numbering), kappa; also called M13-C06_Ab; Eu-C06
stoichiometry of binding (N) [14]: 0.89 | ΔH° [14]: -11.3 kcal/mol | stoichiometry of binding (N) [15]: 0.98 | ΔH° [15]: -14.4 kcal/mol | stoichiometry of binding (N) [16]: 0.98 | ΔH° [16]: -20.1 kcal/mol | stoichiometry of binding (N) [17]: 0.97 | ΔH° [17]: -29.2 kcal/mol | Inhibition of IGF-1 stimulated phosphorylation of IGF-1R (IC50 nM) [18]: < 0.13 nM | Inhibition of IGF-2 stimulated phosphorylation of IGF-1R (IC50 nM) [18]: < 0.63 nM | % IGF-1 inhibition upon antibody saturation [4]: 25% | % IGF-2 inhibition upon antibody saturation [5]: 16%

B5: M13-C06 Fab (Fab, V domains shown)
VH: EVQLLESGGGLVQPGGSLRLSCAASGFTFSIYRMQWVRQAPGKGLEWVSGISPSGGTTWYADSVKGRFTISRDNSKNTLYLQMNSLRAEDTAVYYCARWSGGSGYAFDIWGQGTMVTVSS
VL: DIQMTQSPLSLSASVGDRVTITCQASRDIRNYLNWYQQKPGKAPKLLIYDASSLQTGVPSRFGGSGSGTDFSFTIGSLQPEDIATYYCQQFDSLPHTFGQGTKLEIK
notes: as for B1
Biacore Relative RUmax [19]: 0.04

B6: M12-G04 Fab (Fab, V domains shown)
VH: EVQLLESGGGLVQPGGSLRLSCAASGFTFSKYTMHWVRQAPGKGLEWVSSIVSSGGWTDYADSVKGRFTISRDNSKNTLYLQMNSLRAEDTAVYYCARDRSIAAAGTGWSVSFVDWFDPWGQGTLVTVSS
VL: DIQMTQSPLSLSASVGDRVTITCRASQSINGYLNWYQQKPGKAPNLLIYATSSLQSGVPSRFSGSGSGTDFTLTISSLQPEDFATYYCQQSYSTPPYTFGQGTKLEIK
notes: as for B1
binding result [1]: no binding (tested: about 5000 nM (baseline markers overlap))

B7: M14-G11.G4.P.agly (antibody, human IgG4 S228P, kappa, V domains shown)
VH: EVQLLESGGGLVQPGGSLRLSCAASGFTFSNYPMYWVRQAPGKGLEWVSRISSSGGRTVYADSVKGRFTISRDNSKNTLYLQMNSLRAEDTAVYYCARDRWSRSAAEYGLGGYWGQGTLVTVSS
VL: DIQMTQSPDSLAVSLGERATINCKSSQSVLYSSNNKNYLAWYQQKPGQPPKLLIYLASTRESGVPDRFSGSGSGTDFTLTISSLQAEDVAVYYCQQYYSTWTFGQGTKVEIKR
notes: Aglycosylated human IgG4 (S228P, T299A), kappa; also called M14-G11_Ab; Biotin-G11
stoichiometry of binding (N) [14]: 0.9 | ΔH° [14]: -6.7 kcal/mol | stoichiometry of binding (N) [16]: 0.91 | ΔH° [16]: -26.6 kcal/mol | stoichiometry of binding (N) [17]: 0.7 | ΔH° [17]: -39.5 kcal/mol | % IGF-1 inhibition upon antibody saturation [4]: 1% | % IGF-2 inhibition upon antibody saturation [5]: 1% | EC50 (read off the curve) [20]: ~0.05 nM | IC50 (read off the curve) [21]: ~2 nM | IC50 (read off the curve) [22]: ~6 nM | IC50 (read off the curve) [23]: ~6 nM

B8: M14-G11.G4.P (antibody, human IgG4, V domains shown)
VH: EVQLLESGGGLVQPGGSLRLSCAASGFTFSNYPMYWVRQAPGKGLEWVSRISSSGGRTVYADSVKGRFTISRDNSKNTLYLQMNSLRAEDTAVYYCARDRWSRSAAEYGLGGYWGQGTLVTVSS
VL: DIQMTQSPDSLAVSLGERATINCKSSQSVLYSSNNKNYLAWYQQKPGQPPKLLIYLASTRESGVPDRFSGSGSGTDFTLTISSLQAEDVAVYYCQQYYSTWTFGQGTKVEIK
notes: Full-length human IgG4.P, kappa; also called M14.G11.P; G4 version of M14-G11
EC50 (read off the curve) [24]: ~0.05 nM

B9: M14-G11 Fab (Fab, V domains shown)
VH: EVQLLESGGGLVQPGGSLRLSCAASGFTFSNYPMYWVRQAPGKGLEWVSRISSSGGRTVYADSVKGRFTISRDNSKNTLYLQMNSLRAEDTAVYYCARDRWSRSAAEYGLGGYWGQGTLVTVSS
VL: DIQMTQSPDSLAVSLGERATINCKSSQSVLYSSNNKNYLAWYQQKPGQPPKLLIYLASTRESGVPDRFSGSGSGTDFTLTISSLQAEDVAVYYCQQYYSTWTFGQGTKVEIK
notes: Human kappa Fab (phage library, or papain digest of the full-length antibody)
fold loss in affinity against wild type [25]: ~3 fold | fold loss in affinity against wild type [26]: ~3 fold
